Results reported in patent US9192657B2.
Blank lines part the entries; values can stand above or below the substance they belong to.

Experiments:
[1] = biological target: T1, PAR-1 N-terminal tail peptide (TR33-62) (artificial)
T1 sequence (peptide): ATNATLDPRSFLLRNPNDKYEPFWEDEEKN

[2] = biological target: endothelial protein C receptor (EPCR), as in the binding assays (Homo sapiens (Human)) (UniProt Q9UNN8); experiment: apparent Kd; binding to immobilized soluble EPCR and to K293 cells transfected with wtEPCR (format of the value not told)
[3] = biological target: endothelial protein C receptor (EPCR) on cells (Homo sapiens (Human)) (UniProt Q9UNN8)
[4] = biological target: T1, PAR-1 N-terminal tail peptide (TR33-62) (artificial); remark: listed apart in the source

PAR-1 peptide (TR33-62) cleavage (% rwt-APC), catalytic efficiency by HPLC [1]: 116 % rwt-APC
Substance: RR229/230AA-APC (enzyme)

Kd [2]: > 300 nM | concentration for half-maximal inhibition of staurosporine-induced endothelial apoptosis (fold higher concentration) [3]: 24
Substance: PTGla-APC (APC with prothrombin residues 1-46) (from UniProt P00734) (enzyme)

cleavage of the TR33-62 peptide at Arg41, HPLC (fold lower kcat/Km than thrombin) [4]: 25000
Substance: recombinant wild-type activated protein C (enzyme)

PAR-1 peptide (TR33-62) cleavage (% rwt-APC), catalytic efficiency by HPLC [1]: < 3 % rwt-APC
Substance: S360A-APC (enzyme)
